Source: publication PMC4358367, “Structural basis of diverse membrane target recognitions by ankyrins” (eLife, 2014)
Numbering of substitutions follows the chain as printed. In names and notes the source's numbering stands. Read-outs that look alike come from different tables or passages of the source. One block for each binder: values may come before it.

Experiments:
[1] = target: T1, AnkG_repeats (24 ANK repeats of rat 190 kDa ankyrin-G, residues 38–855), O70511; assay: ITC; conditions: chain shown with the change
T1 chain: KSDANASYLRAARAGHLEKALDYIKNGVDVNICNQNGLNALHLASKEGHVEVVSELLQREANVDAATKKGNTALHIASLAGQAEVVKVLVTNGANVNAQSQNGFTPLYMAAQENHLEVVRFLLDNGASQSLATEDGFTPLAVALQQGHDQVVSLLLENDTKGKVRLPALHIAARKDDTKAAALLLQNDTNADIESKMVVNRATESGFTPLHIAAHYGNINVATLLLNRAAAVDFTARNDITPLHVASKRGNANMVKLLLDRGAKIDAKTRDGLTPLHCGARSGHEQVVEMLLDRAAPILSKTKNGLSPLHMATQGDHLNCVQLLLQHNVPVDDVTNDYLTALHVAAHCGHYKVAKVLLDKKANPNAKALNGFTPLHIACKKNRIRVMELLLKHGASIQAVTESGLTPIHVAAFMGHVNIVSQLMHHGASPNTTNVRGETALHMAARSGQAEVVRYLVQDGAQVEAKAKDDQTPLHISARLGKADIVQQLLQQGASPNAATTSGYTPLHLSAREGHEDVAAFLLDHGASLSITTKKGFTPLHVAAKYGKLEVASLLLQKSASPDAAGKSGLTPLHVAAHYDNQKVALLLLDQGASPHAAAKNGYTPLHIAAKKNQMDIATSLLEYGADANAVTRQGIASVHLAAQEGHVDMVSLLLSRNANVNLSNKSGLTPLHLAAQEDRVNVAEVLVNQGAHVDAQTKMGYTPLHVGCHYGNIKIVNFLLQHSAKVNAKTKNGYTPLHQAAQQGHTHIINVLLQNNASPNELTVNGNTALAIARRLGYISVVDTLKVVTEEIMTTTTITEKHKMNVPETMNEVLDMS

[2] = target: T2, AnkG ANK repeats R1–6 (truncation of AnkG_repeats with C-terminal capping sequence) (rat | human); assay: ITC
T2 chain: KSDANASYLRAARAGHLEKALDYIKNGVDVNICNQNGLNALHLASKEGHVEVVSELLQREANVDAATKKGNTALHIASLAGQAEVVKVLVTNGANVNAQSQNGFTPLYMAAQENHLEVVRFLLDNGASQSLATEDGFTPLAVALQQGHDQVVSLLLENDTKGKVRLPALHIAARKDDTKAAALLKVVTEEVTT

AnkB R1-14 = target: T3, AnkB R1-14 (Homo sapiens); assay: ITC
T3 chain: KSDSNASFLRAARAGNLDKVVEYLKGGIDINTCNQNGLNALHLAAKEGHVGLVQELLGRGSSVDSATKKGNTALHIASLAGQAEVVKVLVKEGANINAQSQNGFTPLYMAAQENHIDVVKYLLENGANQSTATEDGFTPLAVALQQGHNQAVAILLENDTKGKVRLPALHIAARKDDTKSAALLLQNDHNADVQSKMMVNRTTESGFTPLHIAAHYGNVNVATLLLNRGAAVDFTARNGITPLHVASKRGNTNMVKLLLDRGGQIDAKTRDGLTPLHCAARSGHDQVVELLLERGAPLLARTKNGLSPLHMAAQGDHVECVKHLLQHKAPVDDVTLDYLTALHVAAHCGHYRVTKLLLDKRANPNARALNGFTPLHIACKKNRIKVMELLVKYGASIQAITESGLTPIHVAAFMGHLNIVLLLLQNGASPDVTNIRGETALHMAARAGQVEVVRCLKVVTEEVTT

[3] = target: T4, AnkB_repeats_R1–9 (first nine ANK repeats of AnkB, residues 28–318, followed by the capping sequence 814–822) (human, UniProt Q01484 28-318; Q01484 814-822); assay: ITC
T4 chain: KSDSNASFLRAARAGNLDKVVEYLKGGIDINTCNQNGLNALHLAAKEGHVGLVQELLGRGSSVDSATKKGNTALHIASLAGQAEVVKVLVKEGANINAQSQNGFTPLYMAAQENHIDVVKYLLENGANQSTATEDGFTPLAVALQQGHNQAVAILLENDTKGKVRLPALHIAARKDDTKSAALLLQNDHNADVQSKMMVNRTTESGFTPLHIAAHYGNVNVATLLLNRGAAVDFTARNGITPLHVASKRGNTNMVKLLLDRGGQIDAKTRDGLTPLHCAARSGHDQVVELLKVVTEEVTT

[4] = target: T5, AnkG_repeats (24 ANK repeats of rat 190 kDa ankyrin-G, residues 38–855) (rat, UniProt O70511 38-855); assay: ITC
T5 chain: T1 chain

[5] = target: T6, Nav1.2_ABD (ankyrin binding domain of Nav1.2, residues 1035–1129); assay: ITC; conditions: chain shown with the change
T6 chain: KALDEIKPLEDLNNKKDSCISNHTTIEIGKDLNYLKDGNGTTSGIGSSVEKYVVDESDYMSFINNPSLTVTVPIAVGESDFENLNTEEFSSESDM

[6] = target: T6, Nav1.2_ABD (ankyrin binding domain of …); assay: ITC; conditions: chain shown with the change
[7] = target: T7, Nfasc_ABD (28-residue fragment of the neurofascin cytoplasmic tail, residues 1187–1214); assay: ITC; conditions: chain shown with the change;; parent: 0.21 ± 0.02
T7 chain: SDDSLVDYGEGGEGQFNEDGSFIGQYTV

[8] = target: T6, Nav1.2_ABD (ankyrin binding domain of …); assay: ITC; conditions: chain shown with the change
[9] = target: T6, Nav1.2_ABD (ankyrin binding domain of …); assay: ITC; conditions: chain shown with the change
[10] = target: T8, Nav1.2 ABD C-terminal half (UniProt Q99250)
T8 chain: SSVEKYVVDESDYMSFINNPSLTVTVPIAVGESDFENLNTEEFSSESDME

[11] = target: T5, AnkG_repeats (24 ANK repeats of rat 190 …); assay: ITC
[12] = target: T2, AnkG ANK repeats R1–6 (truncation of …); assay: ITC
[13] = target: T5, AnkG_repeats (24 ANK repeats of rat 190 …); assay: ITC

B3: E1112K-Nav1.2 (ABD with the charge reversal mutation E1112K) (domain or fragment)
chain: T6 chain with E78K
Kd [4]: > 50 µM

B4: AnkG_repeats (24 ANK repeats of rat 190 kDa ankyrin-G, residues 38–855), O70511 F131Q; F164Q (protein)
chain: T1 chain with F104Q, F137Q
Kd [5]: 6600 nM
Kd [6]: 6.6 µM

B6: AnkG_repeats (24 ANK repeats of rat 190 kDa ankyrin-G, residues 38–855), O70511 I267Q; L300Q (protein)
chain: T1 chain with I240Q, L273Q
Kd [5]: 220 nM
Kd [7]: 2.8 µM
Kd [9]: 220 nM

Binder: MMNEDA [AnkB repeats R1-6]
Kd [10]: ~2300 nM

Next, values leading:

Kd [1]: 4.3 µM
B1: Nav1.2_ABD (ankyrin binding domain of Nav1.2, residues 1035–1129) E1112A (protein)
chain: T6 chain with E78A

Kd [2]: 2300 nM
Kd (AnkB R1-14): 290 nM
Kd [3]: 3.5 µM
B2: Nav1.2_ABD (ankyrin binding domain of Nav1.2, residues 1035–1129) (domain or fragment)
chain: T6 chain

Kd [5]: 1100 nM
Kd [7]: 6 µM
Kd [8]: 1100 nM
B5: AnkG_repeats (24 ANK repeats of rat 190 kDa ankyrin-G, residues 38–855), O70511 L366Q; F399Q; L432Q (protein)
chain: T1 chain with L339Q, F372Q, L405Q

Kd [11]: 2700 nM
Kd [12]: 2300 nM
Binder: TVTVPIAVGESDFENLNTEEFSSESDM (domain or fragment) [Nav1.2_ABD-C (27-residue motif of loop 2, residues 1103–1129)]

Kd [13]: 580 nM
B7: Nfasc entire cytoplasmic tail (residues 1132–1240) (domain or fragment)
chain: KRSRGGKYPVREKKDVPLGPEDPKEEDGSFDYSDEDNKPLQGSQTSLDGTIKQQESDDSLVDYGEGGEGQFNEDGSFIGQYTVKKDKEETEGNESSEATSPVNAIYSLA

Kd [11]: 170 nM
B8: Nav1.2 ABD without the C-terminal less-conserved 10 residues of ABD-C (domain or fragment)
chain: KALDEIKPLEDLNNKKDSCISNHTTIEIGKDLNYLKDGNGTTSGIGSSVEKYVVDESDYMSFINNPSLTVTVPIAVGESDFENLN
